Laboratory results: patent US20160287713A1 (CALIFORNIA INSTITUTE FOR BIOMEDICAL RESEARCH, published 2016)
Where no end group is shown, it is not given here. The star is where a group is joined. FA1 = tetradecanamide (myristoyl) lipid attached through an ethoxy-ethoxy-ethyl acetamide linker, made from Br-FA1, N-(2-(2-(2-(2-bromoacetamido)ethoxy)ethoxy)ethyl)tetradecanamide, CCCCCCCCCCCCCC(=O)NCCOCCOCCNC(=O)C*; FA2 = not defined here; FA3 = not defined here

T1: LGR7 (UniProt Q9HBX9 1-757, limits assumed)
T1 sequence (looked up): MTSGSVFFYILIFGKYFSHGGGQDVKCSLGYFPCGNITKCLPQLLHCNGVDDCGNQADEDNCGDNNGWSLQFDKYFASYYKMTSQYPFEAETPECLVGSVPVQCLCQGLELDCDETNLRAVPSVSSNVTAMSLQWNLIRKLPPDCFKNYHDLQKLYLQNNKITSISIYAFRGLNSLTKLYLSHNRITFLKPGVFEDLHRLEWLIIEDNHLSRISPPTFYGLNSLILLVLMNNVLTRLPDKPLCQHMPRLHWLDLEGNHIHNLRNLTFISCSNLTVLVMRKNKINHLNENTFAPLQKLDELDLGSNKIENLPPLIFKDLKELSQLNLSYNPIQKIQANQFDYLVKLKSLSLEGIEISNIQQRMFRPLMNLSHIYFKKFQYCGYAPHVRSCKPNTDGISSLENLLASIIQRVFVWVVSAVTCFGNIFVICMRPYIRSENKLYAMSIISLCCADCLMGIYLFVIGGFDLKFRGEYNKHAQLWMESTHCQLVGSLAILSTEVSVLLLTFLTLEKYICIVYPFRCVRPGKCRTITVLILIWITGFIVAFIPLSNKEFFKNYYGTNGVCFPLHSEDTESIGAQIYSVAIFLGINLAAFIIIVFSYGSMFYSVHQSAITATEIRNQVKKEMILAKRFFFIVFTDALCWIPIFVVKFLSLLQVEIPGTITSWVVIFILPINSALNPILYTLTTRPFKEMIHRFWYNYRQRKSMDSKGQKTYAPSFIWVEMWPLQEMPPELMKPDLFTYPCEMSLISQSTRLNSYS


Molecular target: T1, LGR7
Test: cell-based or functional assay

| Binder | Activity, fold drop compared to relaxin |
| --- | --- |
| Relaxin-B-D1AM25KM4K, A-Q1AH12K, B-S29C-FA2 (ligand, ends and bridges not checked; also: A and B chains disulfide-linked, pairing not given here) chain 1: ASWKEEVIKLCGRELVRAQIAICGKSTWC(FA2) chain 2: ALYSALANKCCKVGCTKRSLARFC | 150 fold |
| Relaxin-B-D1A, A-R18C-FA1 (ligand, ends and bridges not checked; also: A and B chains disulfide-linked, pairing not given here) chain 1: ASWMEEVIKLCGRELVRAQIAICGMSTWS chain 2: QLYSALANKCCHVGCTKC(FA1)SLARFC | 15 fold |
| Relaxin-B-D1A, A-Q1C-FA2 (ligand, ends and bridges not checked; also: A and B chains disulfide-linked, pairing not given here) chain 1: ASWMEEVIKLCGRELVRAQIAICGMSTWS chain 2: C(FA2)LYSALANKCCHVGCTKRSLARFC | 15 fold |
| Relaxin-B-D1A, A-Q1C-FA1 (ligand, ends and bridges not checked; also: A and B chains disulfide-linked, pairing not given here) chain 1: ASWMEEVIKLCGRELVRAQIAICGMSTWS chain 2: C(FA1)LYSALANKCCHVGCTKRSLARFC | 10 fold |
| Relaxin-B-D1A, A-Q1C-FA3 (ligand, ends and bridges not checked; also: A and B chains disulfide-linked, pairing not given here) chain 1: ASWMEEVIKLCGRELVRAQIAICGMSTWS chain 2: C(FA3)LYSALANKCCHVGCTKRSLARFC | 25 fold |
| Relaxin-B-D1AM25KM4K, A-Q1AH12K, B-S29C-FA3 (ligand, ends and bridges not checked; also: A and B chains disulfide-linked, pairing not given here) chain 1: ASWKEEVIKLCGRELVRAQIAICGKSTWC(FA3) chain 2: ALYSALANKCCKVGCTKRSLARFC | 150 fold |
| Relaxin-B-D1A, A-R18C-FA3 (ligand, ends and bridges not checked; also: A and B chains disulfide-linked, pairing not given here) chain 1: ASWMEEVIKLCGRELVRAQIAICGMSTWS chain 2: QLYSALANKCCHVGCTKC(FA3)SLARFC | 30 fold |
| Relaxin-B-D1A, A-R18C-FA2 (ligand, ends and bridges not checked; also: A and B chains disulfide-linked, pairing not given here) chain 1: ASWMEEVIKLCGRELVRAQIAICGMSTWS chain 2: QLYSALANKCCHVGCTKC(FA2)SLARFC | 30 fold |
| Relaxin-A-H12K, B-D1AS29C-FA2 (ligand, ends and bridges not checked; also: A and B chains disulfide-linked, pairing not given here) chain 1: ASWMEEVIKLCGRELVRAQIAICGMSTWC(FA2) chain 2: QLYSALANKCCKVGCTKRSLARFC | 16 fold |
| Relaxin-B-D1AM25KM4K, A-Q1AH12K, B-S29C-FA1 (ligand, ends and bridges not checked; also: A and B chains disulfide-linked, pairing not given here) chain 1: ASWKEEVIKLCGRELVRAQIAICGKSTWC(FA1) chain 2: ALYSALANKCCKVGCTKRSLARFC | 25 fold |
| Relaxin-B-D1AS29C-XTEN288 (ligand) chain 1: ASWMEEVIKLCGRELVRAQIAICGMSTWC chain 2: QLYSALANKCCHVGCTKRSLARFC chain 3: SAGSPTGPGSEPATSGSETPGTSESATPESGPGSEPATSGSETPGTSESATPESGPGTSTEPSEGSAPGSPAGSPTSTEEGTSESATPESGPGSEPATSGSETPGTSESATPESGPGSPAGSPTSTEEGSPAGSPTSTEEGTSTEPSEGSAPGTSESATPESGPGTSESATPESGPGTSESATPESGPGSEPATSGSETPGSEPATSGSETPGSPAGSPTSTEEGTSTEPSEGSAPGTSTEPSEGSAPGSEPATSGSETPGTSESATPESGPGTSTEPSEGSAPSASR | 20 fold |
| Relaxin-B-D1AM4KS29C-FA2 (ligand, ends and bridges not checked; also: lipid conjugate FA2, site not given here) chain 1: ASWKEEVIKLCGRELVRAQIAICGMSTWC chain 2: QLYSALANKCCHVGCTKRSLARFC | 40 fold |
| Relaxin-B-D1A, A-A5C-FA3 (ligand, ends and bridges not checked; also: A and B chains disulfide-linked, pairing not given here) chain 1: ASWMEEVIKLCGRELVRAQIAICGMSTWS chain 2: QLYSC(FA3)LANKCCHVGCTKRSLARFC | 15 fold |
| Relaxin-B-D1A (ligand, ends and bridges not checked; cysteine pairing not given here) chain 1: ASWMEEVIKLCGRELVRAQIAICGMSTWS chain 2: QLYSALANKCCHVGCTKRSLARFC | 0 fold |
| Relaxin-B-D1A, A-A5C-FA2 (ligand, ends and bridges not checked; also: A and B chains disulfide-linked, pairing not given here) chain 1: ASWMEEVIKLCGRELVRAQIAICGMSTWS chain 2: QLYSC(FA2)LANKCCHVGCTKRSLARFC | 25 fold |
| Pro-Relaxin-B-D1A (ligand) MIEEGRDSWMEEVIKLCGRELVRAQIAICGMSTWSKRKPTGYGSRKKRQLYSALANKCCHVGCTKRSLARFC | 10 fold |
| Relaxin-B-D1AM25KS29C-FA2 (ligand, ends and bridges not checked; also: lipid conjugate FA2, site not given here) chain 1: ASWMEEVIKLCGRELVRAQIAICGKSTWC chain 2: QLYSALANKCCHVGCTKRSLARFC | 48 fold |

Molecular target: T1, LGR7
Test: cell-based or functional assay
Remark: another data set of the same source

| Binder | Activity |
| --- | --- |
| Tev-Relaxin-single-chain (ligand) HHHHHHHHENLYFQGSGGDSWMEEVIKLCGRELVRAQIAICGMSTWSGGGRGGRQLYSALANKCCHVGCTKRSLARFC | 14 nM |
| Tev-Relaxin-B-S29C-single-chain (ligand) HHHHHHHHENLYFQGSGGDSWMEEVIKLCGRELVRAQIAICGMSTWCGGGRGGRQLYSALANKCCHVGCTKRSLARFC | 11 nM |
| Tev-Relaxin-B-S29C-FA1-single-chain (ligand, lipid FA1 on the Cys at B-chain position 29 (from Br-FA1, Example 5)) HHHHHHHHENLYFQGSGGDSWMEEVIKLCGRELVRAQIAICGMSTWCGGGRGGRQLYSALANKCCHVGCTKRSLARFC | 29 nM |
| Tev-Relaxin-C chain (ligand) HHHHHHHHENLYFQGSGGDSWMEEVIKLCGRELVRAQIAICGMSTWSKRSLSQEDAPQTPRPVAEIVPSFINKDTETINMMSEFVANLPQELKLTLSEMQPALPQLQQHVPVLKDSSLLFEEFKKLIRNRQSEAADSSPSELKYLGLDTHSRKKRQLYSALANKCCHVGCTKRSLARFC | 6 nM |
| Tev-Relaxin-B-S29C-FA1-C-Chain (ligand, lipid FA1 on the Cys at B-chain position 29 (from Br-FA1, Example 5)) HHHHHHHHENLYFQGSGGDSWMEEVIKLCGRELVRAQIAICGMSTWCKRSLSQEDAPQTPRPVAEIVPSFINKDTETINMMSEFVANLPQELKLTLSEMQPALPQLQQHVPVLKDSSLLFEEFKKLIRNRQSEAADSSPSELKYLGLDTHSRKKRQLYSALANKCCHVGCTKRSLARFC | 21 nM |
| GSGG-Relaxin-single-chain (ligand) GSGGDSWMEEVIKLCGRELVRAQIAICGMSTWSGGGRGGRQLYSALANKCCHVGCTKRSLARFC | 1 nM |
| Tev-Relaxin (ligand) chain 1: HHHHHHHHENLYFQSGGDSWMEEVIKLCGRELVRAQIAICGMSTWS chain 2: QLYSALANKCCHVGCTKRSLARFC | 2 nM |
